This note sets out measurements from publication PMC6049616.

The test deals with semiSWEET. Description: native MS.

As to semiSWEET (natural protein), the stoichiometry N – broadly, a count of units in the complex or per binding partner – came out at 2.
